Laboratory results from patent US20230304075, “NUCLEIC ACID-BASED BIOSENSOR AND ASSOCIATED METHODS” (FACible BioDiagnostics LLC, published 2023).

Tests used:
[1] = target: SARS-CoV-2 spike S2 protein (SARS-CoV-2, UniProt P0DTC2 P0DTC2:686-1213)
[2] = target: SARS-CoV-2 spike S1 protein (SARS-CoV-2, UniProt P0DTC2 P0DTC2:14-685)

Binder	binding result [1]	binding result [2]
Rho91 (DAF1-4560c-17) (ssRNA) RNA: GGCGAUGCUAGGCUACGACUAGGCCUGAGAAUACUAGUCAAAGACGAUCGCUCGCUUCGGCGAUGAUGGAGAGGCGCAAGGUUAACCGCCUCAGCGUUCAAGCAAAAGAACCCUGUUUGGCUCACCGGGUCCUGCGCAU	binds	no binding
Rho94 (DAF2-30e-17) (ssRNA) RNA: GGUAGCCCUGCCCGGUGUACCUGAGCCUAGCUCAACGACUCGCUUCGGCGAUGAUGGAGAGGCGCAAGGUUAACCGCCUCAGUCGAAUGGGUACACCUGGCAGUCCGGACAUGCAU	binds	no binding
